In paper PMC4794775:

Key:
[1] = molecular target: RopB C-terminal domain (RopB-CTD, amino acids 56-280), wild type (Streptococcus pyogenes (group A Streptococcus) strain MGAS10870); experiment: SEC
[2] = molecular target: RopB-CTD C222A (Streptococcus pyogenes (group A Streptococcus) strain MGAS10870); experiment: SEC
[3] = molecular target: RopB-CTD C227Y (Streptococcus pyogenes (group A Streptococcus) strain MGAS10870); experiment: SEC
[4] = molecular target: RopB-CTD I255A (Streptococcus pyogenes (group A Streptococcus) strain MGAS10870); experiment: SEC
[5] = molecular target: RopB-CTD R226A (Streptococcus pyogenes (group A Streptococcus) strain MGAS10870); experiment: SEC
[6] = molecular target: RopB-CTD R226Q (Streptococcus pyogenes (group A Streptococcus) strain MGAS10870); experiment: SEC
[7] = molecular target: RopB-CTD Y224A (Streptococcus pyogenes (group A Streptococcus) strain MGAS10870); experiment: SEC
[8] = molecular target: RopB-CTD Y224H (Streptococcus pyogenes (group A Streptococcus) strain MGAS10870); experiment: SEC
[9] = molecular target: full-length RopB (Streptococcus pyogenes (group A Streptococcus) strain MGAS10870)

Substance: RopB C-terminal domain (RopB-CTD, amino acids 56-280), wild type (domain or fragment)
- stoichiometry N [1]: 2

Substance: RopB-CTD C222A (domain or fragment)
- stoichiometry N [2]: 2

Substance: RopB-CTD C227Y (domain or fragment)
- stoichiometry N [3]: 2

Substance: RopB-CTD I255A (domain or fragment)
- stoichiometry N [4]: 2

Substance: RopB-CTD R226A (domain or fragment)
- stoichiometry N [5]: 2

Substance: RopB-CTD R226Q (domain or fragment)
- stoichiometry N [6]: 2

Substance: RopB-CTD Y224A (domain or fragment)
- stoichiometry N [7]: 2

Substance: RopB-CTD Y224H (domain or fragment)
- stoichiometry N [8]: 2

Substance: full-length RopB (natural protein)
- stoichiometry N [9]: > 6
